Molecular target: FLAG-Synoviolin (UniProt Q86TM6 1-617, limits assumed)
Assay: cell-based or functional assay

Sequence of FLAG-Synoviolin (Q86TM6 whole entry): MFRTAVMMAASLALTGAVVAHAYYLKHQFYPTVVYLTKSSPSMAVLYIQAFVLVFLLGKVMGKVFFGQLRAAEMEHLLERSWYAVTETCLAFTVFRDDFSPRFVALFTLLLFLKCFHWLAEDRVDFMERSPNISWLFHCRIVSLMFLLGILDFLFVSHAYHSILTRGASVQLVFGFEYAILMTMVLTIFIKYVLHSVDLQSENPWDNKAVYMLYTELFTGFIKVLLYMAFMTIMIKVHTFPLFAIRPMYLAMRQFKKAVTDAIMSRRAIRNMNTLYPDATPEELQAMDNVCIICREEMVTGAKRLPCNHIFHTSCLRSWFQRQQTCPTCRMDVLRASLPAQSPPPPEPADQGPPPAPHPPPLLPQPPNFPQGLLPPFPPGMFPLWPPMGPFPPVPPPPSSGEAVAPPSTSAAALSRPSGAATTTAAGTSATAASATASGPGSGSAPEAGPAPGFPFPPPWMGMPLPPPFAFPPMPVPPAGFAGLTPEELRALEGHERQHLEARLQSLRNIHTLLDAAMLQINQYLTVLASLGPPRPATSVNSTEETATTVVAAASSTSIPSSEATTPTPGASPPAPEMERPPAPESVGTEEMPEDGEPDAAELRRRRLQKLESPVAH

B1: SP-HA-hsHRD3B (SEL1L/hsHRD3 with an HA-tag inserted immediately after the signal peptide) (other, not shown: small tags and cut ends)
chain: GSQDESLDSKTTLTSDESVKDHTTAGRVVAGQIFLDSEESELESSIQEEEDSLKSQEGESVTEDISFLESPNPENKDYEEPKKVRKPALTAIEGTAHGEPCHFPFLFLDKEYDECTSDGREDGRLWCATTYDYKADEKWGFCETEEEAAKRRQMQEAEMMYQTGMKILNGSNKKSQKREAYRYLQKAASMNHTKALERVSYALLFGDYLPQNIQAAREMFEKLTEEGSPKGQTALGFLYASGLGVNSSQAKALVYYTFGALGGNLIAHMVLGYRYWAGIGVLQSCESALTHYRLVANHVASDISLTGGSVVQRIRLPDEVENPGMNSGMLEEDLIQYYQFLAEKGDVQAQVGLGQLHLHGGRGVEQNHQRAFDYFNLAANAGNSHAMAFLGKMYSEGSDIVPQSNETALHYFKKAADMGNPVGQSGLGMAYLYGRGVQVNYDLALKYFQKAAEQGWVDGQLQLGSMYYNGIGVKRDYKQALKYFNLASQGGHILAFYNLAQMHASGTGVMRSCHTAVELFKNVCERGRWSERLMTAYNSYKDGDYNAAVIQYLLLAEQGYEVAQSNAAFILDQREASIVGENETYPRALLHWNRAASQGYTVARIKLGDYHFYGFGTDVDYETAFIHYRLASEQQHSAQAMFNLGYMHEKGLGIKQDIHLAKRFYDMAAEASPDAQVPVFLALCKLGVVYFLQYIRETNIRDMFTQLDMDQLLGPEWDLYLMTIIALLLGTVIAYRQRQHQDMPAPRPPGPRPAPPQQEGPPEQQPPQ
  half-life of SEL1L/hsHRD3 (cycloheximide chase, Western blotting), in the absence of Synoviolin: 1.8 h
  half-life of SEL1L/hsHRD3 (cycloheximide chase, Western blotting), with FLAG-Synoviolin co-expressed: 4.3 h

— patent US20070238677A1 (LOCOMOGENE, published 2007)
